Experimental data taken from the nanobody polyreactivity screen of Harvey et al. (2022).

experiment: yeast display, Sf9 membrane polyspecificity reagent, FACS + sequencing; frameworks hold sequencing errors
Outline: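 Synthetic nanobody libraries on Saccharomyces cerevisiae BJ5465 were galactose-induced for 36–48 hours, stained 1 hour at 4 °C with 10% biotinylated, detergent-solubilized Sf9 membrane reagent and enriched on streptavidin microbeads. FACS then separated cells into low and high (top ~1%) gates by anti-HA (expression) and streptavidin (reagent binding) fluorescence. Genes were colony-PCR amplified, MiSeq 2 × 250 sequenced and CDR-length filtered. A clone's polyreactivity label is that of its gate of origin.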

Sequence | polyreactivity (PSR sort gate)
QVQLVESGGGLVQAGGSLRLTCAASGSTFRYYVMGWYRQAPGKERELVAGISYRGGTTYYADSVKGRFTISRDNAKNTVYLQMNSLKPEDTAVYYCNAETAAAQASYDRLYVLLDYWGQGTQVTVSS | low polyreactivity
QVQLVESGGGLVQAGGSLRLTCAASGSTFYIYAMGWYRQAPGKERELVAAISQGGGSTSYADSVKGRFTISRDYAKNTVYLQMNSLKPEDTAVYYCAARRASRVRGKEGGYWGQGSQVTVSS | high polyreactivity
QVQLVESGGGLVQAGGSLRLTCAASGSTFYIYAMGWYRQAPGKERELVARISGSGGSTYYADSVKGRFTISRDNAKNTVYLQMNSLKPEDTAVYYCAADDIYKYYQYYAFPYYRYDYWGQGTQVTVSS | low polyreactivity
QVQLVESGGGLVQAGGSLRLTCAASGSTFYLNAMGWYRQATGKERELVAAITVSGGSTYYADSVKGRFTISRDNAKNTVYLQMNSLKPVDTAVYYCARELLSPTYQRWYYYWGQGTQVTVSS | low polyreactivity
QVQLVESGGGLVQAGGSLRLTCAASGSTFYTYAMGWYRQAPGNERELVAALSYGGGITYYADSVKGRFTISRDNEKNTVYIQMNSLKPEDTAVYYCAAVNGWQRYEFWGQGTQVTVSS | high polyreactivity
QVQLVESGGGLVQAGGSLRLTCAASGSTIVRNAMGWYRQAPGKEREFVAAIDWRGGSTSYADSVKGRFTISRDNAKNTVYLQMHSLKPADTAVYYCAAARRARELRSGQGSTYGNEYWGLGTQVTVSS | high polyreactivity
QVQLVESGGGLVQAGGSLRLTCAASGSTSYSNAMGWYRQAPGKERELVAAINRRGDSTYYADSVKGRFTISRDNAKNTVYLQMNSLKPEDTAVYYCNKVVRVYLGRFQYYSWGQGTQVTVSS | high polyreactivity
QVQLVESGGGLVQAGGSLRLTCAASGYIFGIYAMGWYRQAPGKERELVAAITTSSGSTYADSVKGRFTISRDNAKNTVYLQMNSLKPEDTAVYYCAADGYLYSYPGHRRASYDYWGQGTQVTVSS | low polyreactivity
QVQLVESGGGLVQAGGSLRLTCAASGYTFAGNAMGWYRQAPGKERELVAALSRSGGRTYYADSVKGRFTISRDNAKTTVYLQMNSLKPEDTAVYYCAASYRYTEYVSTWGFGYWGQGTQVTVSS | high polyreactivity
QVQLVESGGGLVQAGGSLRLTCAASGYTFRRYAMGWYRQAPGKERELVAAITRDDSTNYADSVKGRFTISRDNGKNTVYLQMNSLKPEDTAVYYCAAAVGLRRYSPLHLLYYYWGQGTQVTVSS | high polyreactivity
QVQLVESGGGLVQAGGSLRLTCAASRSIFYPNAMGWYRQAPGKETELVAAISSSGGTNYADSVKGRFTISRDNAQNTVYLQMNSLKPEDTAVYYCNARDKVRYRYSLMDYWGQGTQVTVSS | low polyreactivity
QVQLVESGGGLVQAGGSLRLTCAASVSTFSRYAMGWYRQAPGKERELVAAISWRGGRTYYADSVKGRFTISRDNAKNTVYLQMNSLKPEDTAVYYCNAVSSFTSPRYDYWGQGTQVTVSS | high polyreactivity
QVQLVESGGGLVQAGGSLRLTCAGSGRIFPFYAMGWYRHAPGKERELVAAISWNGGSTFYADSVKGRFTISRDNAKNTVYLQMNSLKPEDTAVYYCNADFRPAYTYDYWGQGTQVTVSS | low polyreactivity
QVQLVESGGGLVQAGGSLRLTCAPSGSTLLVYAMGWNRQAPGKERELVAAISGSGGRTSYADSVKGRFTISRDNAKNTVYLQMNSLKPEDTAVYYCAARRAGTYDYWGEGTQVTVSS | high polyreactivity
QVQLVESGGGLVQAGGSLRLTCDASGSSFIFNAMGWSRQAHGIEMELVAGITRRVDSTFYADSVKGRFTISRDNAKNTVYLQMTSLKPEDTGVFFFAARQYSGVKYNYWGQGTEVTVSS | high polyreactivity
QVQLVESGGGLVQAGGSLRLTCDASGSTFVNYAMGWYRQAPGKERELVAAITDSGGSTYYADSVKGRFTISRDNAKNTVYLQMNCLKPEDTAVYYCATEGYYYYTSYDYWGQGTQVTVSS | low polyreactivity
